T1: angiotensin II type 1 receptor (AT1R) with FLAG peptide fused to its N-terminus (human, UniProt P30556 2-359)
T1 construct: also called AT1R-angiotensin II complex
T1 sequence: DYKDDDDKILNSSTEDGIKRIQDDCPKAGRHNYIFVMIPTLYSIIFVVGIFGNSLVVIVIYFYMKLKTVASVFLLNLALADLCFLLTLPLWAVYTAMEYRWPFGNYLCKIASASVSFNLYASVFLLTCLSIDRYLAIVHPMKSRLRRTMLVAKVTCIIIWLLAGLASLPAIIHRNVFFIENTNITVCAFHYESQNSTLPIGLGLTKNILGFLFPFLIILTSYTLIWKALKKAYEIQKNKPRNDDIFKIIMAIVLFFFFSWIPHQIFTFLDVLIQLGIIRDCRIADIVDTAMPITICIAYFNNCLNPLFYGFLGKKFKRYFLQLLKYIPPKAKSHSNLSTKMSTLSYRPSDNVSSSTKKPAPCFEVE


Key:
[1] = biological target: T1, angiotensin II type 1 receptor (AT1R) …; assay: on-yeast binding assay: yeast-displayed nanobody, titration of AT1R-angiotensin II complex, single replicate, EC50 from curve fit
[2] = biological target: T1, angiotensin II type 1 receptor (AT1R) …; assay: radioligand competition binding assay on AT1R (nanobody stabilises agonist binding in the presence of antagonist; radioligand not named), three independent experiments; column headed Affinity
[3] = biological target: human serum albumin (HSA) (human, UniProt P02768 25-609); assay: on-yeast binding assay: yeast-displayed nanobody, titration of HSA, n=3, EC50 from curve fit

Row | Binder | EC50 [1] [nM] | IC50 [2] [nM] | EC50 [3] [nM]
1 | AT110 (VHH, also called nanobody AT110) VHH: QVQLQESGGGLVQAGGSLRLSCAASGNIFDADIMGWYRQAPGKERELVASITDGGSTNYADSVKGRFTISRDNAKNTVYLQMNSLKPEDTAVYYCAAIAYPDIPTYFDYDSDYFYWGQGTQVTVSS | 257 | 50 | 
2 | AT110i102 (VHH) VHH: QVQLQESGGGLVQAGGSLRLSCAASGNIFDADIMGWYRQAPGKERELVASITDGGSTNYADSVKGHFTISRDNAKNTVYLQMNSLKPEDTAVYYCAAVAYPDIPTYFDYDSDYFYWGQGTQVTVSS | 14 | 5 | 
3 | AT110 R45C (VHH, also called dominant mutation R45C) VHH: QVQLQESGGGLVQAGGSLRLSCAASGNIFDADIMGWYRQAPGKECELVASITDGGSTNYADSVKGRFTISRDNAKNTVYLQMNSLKPEDTAVYYCAAIAYPDIPTYFDYDSDYFYWGQGTQVTVSS | 15 |  | 
4 | AT110i103 (VHH) VHH: QVQLQESGGGLVQAGGSLRLSCAASGNIFDADIMGWYRQAPGKERELVASITDGGSTNYADSVKGHFTISRDNAKNTVYLQMNSLKPEDTAVYYCAAVAYPDIPTYFDYDSDHFYWGQGTQVTVSS | 20 | 2.5 | 
5 | AT110i101 (VHH, also called AT110 I98V; dominant mutation 198V (so in the source)) VHH: QVQLQESGGGLVQAGGSLRLSCAASGNIFDADIMGWYRQAPGKERELVASITDGGSTNYADSVKGRFTISRDNAKNTVYLQMNSLKPEDTAVYYCAAVAYPDIPTYFDYDSDYFYWGQGTQVTVSS | 48 | 15 | 
6 | AT110 Y113H (VHH, also called single mutation Y113H) VHH: QVQLQESGGGLVQAGGSLRLSCAASGNIFDADIMGWYRQAPGKERELVASITDGGSTNYADSVKGRFTISRDNAKNTVYLQMNSLKPEDTAVYYCAAIAYPDIPTYFDYDSDHFYWGQGTQVTVSS | 35 | 63 | 
7 | AT110i104 (VHH, also called AT110 R66H; single mutation R66H) VHH: QVQLQESGGGLVQAGGSLRLSCAASGNIFDADIMGWYRQAPGKERELVASITDGGSTNYADSVKGHFTISRDNAKNTVYLQMNSLKPEDTAVYYCAAIAYPDIPTYFDYDSDYFYWGQGTQVTVSS | 133 | 31 | 
8 | Nb.b201i3 (VHH, also called Nb.b201 mutants) VHH: QVQLQESGGGLVQAGGSLRLSCAASGYISDAYYMGWYRQAPGKEREFVATITHGTNTYYADSVKGRFTISRDNAKNTVYLQMNSLKPEDTAVYYCAVLETRSYSFRYWGQGTQVTVSS |  |  | 5.4
9 | Nb.b201 (VHH, also called nanobody Nb.b201) VHH: QVQLQESGGGLVQAGGSLRLSCAASGYISDAYYMGWYRQAPGKEREFVATITHGTNTYYADSVKGRFTISRDNAKNTVYLQMYSLKPEDTAVYYCAVLETRSYSFRYWGQGTQVTVSS |  |  | 18
10 | Nb.b201i1 (VHH, also called Nb.b201 mutants) VHH: QVQLQESGGGLVQAGGSLRLSCAASGYISDAYYMGWYRQAPGKERGFVATITHGTNTYYADSVKGRFTISRDNAKNTVYLQMNSLKPEDTAVYYCAVLETRSYSFRYWGQGTQVTVSS |  |  | 8

Reference: US20240182911A1 (University of California, published 2024)
